# Source: IntAct's records for PubMed 21685921
# B1: Regulator of G-protein signaling 16 (Homo sapiens), O15492 (parent)
# chain: MCRTLAAFPTTCLERAKEFKTRLGIFLHKSELGCDTGSTGKFEWGSKHSKENRNFSEDVLGWRESFDLLLSSKNGVAAFHAFLKTEFSEENLEFWLACEEFKKIRSATKLASRAHQIFEEFICSEAPKEVNIDHETHELTRMNLQTATATCFDAAQGKTRTLMEKDSYPRFLKSPAYRDLAAQASAASATLSSCSLDEPSHT
# B2: Regulator of G-protein signaling 18 (Homo sapiens), Q9NS28 (parent)
# chain: METTLLFFSQINMCESKEKTFFKLIHGSGKEETSKEAKIRAKEKRNRLSLLVQKPEFHEDTRSSRSGHLAKETRVSPEEAVKWGESFDKLLSHRDGLEAFTRFLKTEFSEENIEFWIACEDFKKSKGPQQIHLKAKAIYEKFIQTDAPKEVNLDFHTKEVITNSITQPTLHSFDAAQSRVYQLMEQDSYTRFLKSDIYLDLMEGRPQRPTNLRRRSRSFTCNEFQDVQSDVAIWL
# B3: Regulator of G-protein signaling 4 (Homo sapiens), P49798 (parent)
# chain: MCKGLAGLPASCLRSAKDMKHRLGFLLQKSDSCEHNSSHNKKDKVVICQRVSQEEVKKWAESLENLISHECGLAAFKAFLKSEYSEENIDFWISCEEYKKIKSPSKLSPKAKKIYNEFISVQATKEVNLDSCTREETSRNMLEPTITCFDEAQKKIFNLMEKDSYRRFLKSRFYLDLVNPSSCGAEKQKGAKSSADCASLVPQCA
# B4: Regulator of G-protein signaling 17 (Homo sapiens), Q9UGC6 (parent)
# chain: MRKRQQSQNEGTPAVSQAPGNQRPNNTCCFCWCCCCSCSCLTVRNEERGENAGRPTHTTKMESIQVLEECQNPTAEEVLSWSQNFDKMMKAPAGRNLFREFLRTEYSEENLLFWLACEDLKKEQNKKVIEEKARMIYEDYISILSPKEVSLDSRVREVINRNLLDPNPHMYEDAQLQIYTLMHRDSFPRFLNSQIYKSFVESTAGSSSES
# Variants of: B1
# Conditions: with gnao_rat Gnao1, P59215
# gnao_rat Gnao1, P59215, sequence (P59215 whole entry): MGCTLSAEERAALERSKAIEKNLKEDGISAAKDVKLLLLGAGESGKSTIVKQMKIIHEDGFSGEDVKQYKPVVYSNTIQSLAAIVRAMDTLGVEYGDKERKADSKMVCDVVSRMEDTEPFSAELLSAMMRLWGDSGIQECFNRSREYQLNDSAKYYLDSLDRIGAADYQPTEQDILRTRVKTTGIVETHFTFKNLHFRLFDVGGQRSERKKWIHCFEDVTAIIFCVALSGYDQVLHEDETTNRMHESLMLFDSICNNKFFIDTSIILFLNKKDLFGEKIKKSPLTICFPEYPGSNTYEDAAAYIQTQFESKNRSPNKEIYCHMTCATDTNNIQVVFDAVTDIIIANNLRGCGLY
row,effect of a mutation on the interaction,Variant
1,decreasing interaction,E90A
2,decreasing interaction,E125A;E129A;K173A
3,decreasing interaction,E125A;E129A
4,decreasing interaction,E129A

# Variants of: B2
# Conditions: with gnao_rat Gnao1, P59215
row,effect of a mutation on the interaction,Variant
1,increasing interaction,K141E;H156E;K158R;Q186K
2,increasing interaction,Q186K
3,increasing interaction,K141E;H156E;K158R
4,increasing interaction,H156E;K158R

# Variants of: B3
# Conditions: with gnao_rat Gnao1, P59215
row,effect of a mutation on the interaction,Variant
1,disrupting interaction,E126A;R134A;R166A
2,decreasing interaction,R134A;R166A
3,decreasing interaction,R134A
4,disrupting interaction,N128S

# Variants of: B4
# Conditions: with gnao_rat Gnao1, P59215
row,effect of a mutation on the interaction,Variant
1,increasing interaction,I143S;L144E;S145A;S150N;H183E;R184K;N192K
2,increasing interaction,I143S;L144E;S145A;S150N;N192K
